Assays:
Format in all cases: cell-based, human
[1] = tested on: Met; test: Nature of In1B-dependent ubiquitination of Met (FK1 versus P4D1 antibodies); conditions: HeLa cells, In1B 5 nM, FK1 did not recognize
Protocol: (A) In1B was added (+) to HeLa cells. Lysates were immunoprecipitated using C12 rabbit polyclonal anti-Met antibody and blotted against Met (DL21 mAb). The same membrane was stripped and blotted against ubiquitin using FK1, a mAb that recognizes poly-ubiquitinated proteins, or P4D1, a mAb that recognizes both poly- and mono-ubiquitinated proteins. (B) Total cell extracts from Hela cells treated with […] epoximycin (lane 2) or […] clasto-lactacystin-β-lactone (lane 3) for 60 minutes, or non-treated cells (lane 1) were blotted against poly-ubiquitin (FK1) or actin. (C) ubiquitin ladder was blotted with FK1 or P4D1. The number of ubiquitin modules is indicated on the right. The molecular weight of protein markers is shown in the left of the panels, in kDa. In D and E, Hela Cells were transfected with siRNA to knock down Cbl expression (RNAi), or with RNA control (Control). (D) Cellular Cbl and actin were detected by immunoblotting. […]
The rapid degradation of Met after In B contact is different from the HGF-dependent degradation, which has been reported to take two hours (19-21), indicating differences in the biochemistry of the process. […] Samples from HeLa cells treated with In1B (5 nM) were immunoprecipitated using an anti-Met antibody, and then Met-immunoprecipitates were analyzed with an anti Met mAb (FIG. 3A1), FK1 (FIG. 3A2) or P4D1 (FIG. 3A3). […]

[2] = tested on: Met; test: Kinetics of phosphorylation of Met after In1B (IP Met, blot phospho-tyrosine); conditions: HeLa cells, In1B 5 nM (FIG. 8)
Protocol: FIG. 8 depicts the kinetics of phosphorylation and ubiquitination of Met. 5 nm of purified In1B was added to HeLa cells for the indicated times. Cell extracts were immunoprecipitated (IP) against Met and blotted (WB) against phospho-tyrosine (P-Tyr), Met or ubiquitin (Ub).
Ligand-induced ubiquitination of RTKs is preceded by phosphorylation of the receptor, which is then recognized and ubiquitinated by the ubiquitin ligase Cbl (33). As previously shown (27), In1B rapidly stimulates Met phosphorylation and the kinetics of ubiquitination of Met follows that of phosphorylation with a maximum at two minutes after stimulation (FIG. 8).

[3] = tested on: Met; test: In1B-induced degradation of Met, anti-Met immunoblot of total HeLa cell extracts
Protocol: FIG. 2 depicts the degradation and de-novo synthesis of Met. (A) HeLa cells were treated at the indicated times with 5 nM In1B and cellular extracts were blotted against Met. (B) Cells were treated as in A, but blotted at the same time with anti-Met antibody and Streptavidin. Stars indicate nonspecific bands recognized by streptavidin and the square indicates Met. (C) The experiment was performed as in A, but cells were pre-treated with […] of cycloheximide for 90 minutes before addition of In1B. (D) This experiment was performed as in A, but In1B was removed three minutes after it was added. Actin is shown as the loading control in A, C and D. The molecular mass of the markers is indicated in kDa.
Cells, bacteria and growth conditions. The human cell line used was HeLa (ATCC number CCL-2) grown as recommended by ATCC. Typically, cells were serum starved for three hours before the addition of In1B. The bacterial strains used were Listeria monocytogenes BUG600 and BUG1461. They were grown in BHI medium, which in the case […] contained 5 μg/ml of erythromycin.
Assays. Immunoprecipitation, Re-immunoprecipitation, and immunoblots were performed as described before (31). In1B purification was performed as described (54).
To study In1B-induced degradation of Met in more detail, HeLa cells were treated during increasing periods with In1B (5 nM) and anti-Met immunoblots were performed directly on total cell extracts (FIG. 2A).
When In1B is present, de-novo synthesized Met was in turn ubiquitinated and then degraded (FIG. 2A).

Chain of Met (P08581 25-1390): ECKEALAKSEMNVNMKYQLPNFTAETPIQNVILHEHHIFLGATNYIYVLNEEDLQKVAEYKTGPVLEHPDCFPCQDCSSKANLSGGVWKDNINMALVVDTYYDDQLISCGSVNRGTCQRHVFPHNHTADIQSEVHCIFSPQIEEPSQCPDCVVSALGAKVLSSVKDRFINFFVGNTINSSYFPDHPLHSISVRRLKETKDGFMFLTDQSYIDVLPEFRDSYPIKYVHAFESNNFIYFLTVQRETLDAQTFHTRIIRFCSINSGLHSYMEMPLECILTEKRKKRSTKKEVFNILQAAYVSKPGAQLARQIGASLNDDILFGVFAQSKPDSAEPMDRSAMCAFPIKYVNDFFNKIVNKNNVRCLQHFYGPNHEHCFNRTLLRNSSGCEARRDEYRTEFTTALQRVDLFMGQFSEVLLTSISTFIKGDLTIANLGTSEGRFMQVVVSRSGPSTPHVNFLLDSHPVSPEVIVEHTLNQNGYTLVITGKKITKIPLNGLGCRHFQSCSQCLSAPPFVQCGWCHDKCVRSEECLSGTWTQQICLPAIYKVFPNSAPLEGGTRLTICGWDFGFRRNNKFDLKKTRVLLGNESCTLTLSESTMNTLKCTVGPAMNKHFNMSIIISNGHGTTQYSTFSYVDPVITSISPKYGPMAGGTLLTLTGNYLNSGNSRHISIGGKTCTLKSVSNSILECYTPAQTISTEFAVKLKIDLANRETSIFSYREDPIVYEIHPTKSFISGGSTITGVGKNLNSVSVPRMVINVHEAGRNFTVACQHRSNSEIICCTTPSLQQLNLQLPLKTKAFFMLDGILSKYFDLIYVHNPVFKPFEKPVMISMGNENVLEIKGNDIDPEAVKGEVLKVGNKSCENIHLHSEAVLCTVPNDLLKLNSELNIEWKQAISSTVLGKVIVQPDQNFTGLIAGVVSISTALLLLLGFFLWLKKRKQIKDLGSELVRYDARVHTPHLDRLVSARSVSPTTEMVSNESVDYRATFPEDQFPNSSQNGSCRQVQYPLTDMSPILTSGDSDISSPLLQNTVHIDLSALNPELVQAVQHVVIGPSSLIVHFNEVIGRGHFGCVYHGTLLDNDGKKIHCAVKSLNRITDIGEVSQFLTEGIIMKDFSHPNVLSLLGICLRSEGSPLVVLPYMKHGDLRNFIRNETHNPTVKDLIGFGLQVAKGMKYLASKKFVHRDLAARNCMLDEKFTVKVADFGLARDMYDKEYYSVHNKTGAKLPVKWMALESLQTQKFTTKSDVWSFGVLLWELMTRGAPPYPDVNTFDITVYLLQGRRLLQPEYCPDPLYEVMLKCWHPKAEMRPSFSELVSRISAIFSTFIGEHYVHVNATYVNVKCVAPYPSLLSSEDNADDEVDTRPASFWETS

B1: In1B: Listeria monocytogenes surface protein of the internalin family that interacts with Met; purified soluble protein (protein, UniProt P0DQD2 31-630, looked up)
Internalin B: AKVQAETITVPTPIKQIFSDDAFAETIKDNLKKKSVTDAVTQNELNSIDQIIANNSDIKSVQGIQYLPNVTKLFLNGNKLTDIKPLANLKNLGWLFLDENKVKDLSSLKDLKKLKSLSLEHNGISDINGLVHLPQLESLYLGNNKITDITVLSRLTKLDTLSLEDNQISDIVPLAGLTKLQNLYLSKNHISDLRALAGLKNLDVLELFSQECLNKPINHQSNLVVPNTVKNTDGSLVTPEIISDDGDYEKPNVKWHLPEFTNEVSFIFYQPVTIGKAKARFHGRVTQPLKEVYTVSYDVDGTVIKTKVEAGTRITAPKPPTKQGYVFKGWYTEKNGGHEWNFNTDYMSGNDFTLYAVFKAETTEKAVNLTRYVKYIRGNAGIYKLPREDNSLKQGTLASHRCKALTVDREARNGGKLWYRLKNIGWTKAENLSLDRYDKMEYDKGVTAYARVRNASGNSVWTKPYNTAGAKHVNKLSVYQGKNMRILREAKTPITTWYQFSIGGKVIGWVDTRALNTFYKQSMEKPTRLTRYVSANKAGESYYKVPVADNPVKRGTLAKYKNQKLIVDCQATIEGQLWYRIRTSSTFIGWTKAANLRAQK
nature of In1B-dependent ubiquitination of Met [1]: mono-ubiquitination rather than poly-ubiquitination
time of maximum of Met phosphorylation and ubiquitination after stimulation [2]: two
time after addition at which In1B-induced degradation of Met is observable [3]: one
total amount of Met two minutes after addition of In1B ([3]; HeLa cells, In1B 5 nM, 2 minutes): strongly reduced
specificity of the In1B effect for Met versus other cellular proteins ([3]; HeLa cells, In1B 5 nM, blot with anti-Met antibody and Streptavidin, actin control): only affected the amount of Met
degradation of re-synthesized Met when In1B was removed from the medium ([3]; HeLa cells, In1B removed three minutes after addition, 15 minutes after initial exposure): no degradation of Met was observed
